# Measurements from IntAct's records for PubMed 31515488.
# B1: Melanoma-associated antigen 8 (Homo sapiens), P43361 (parent)
# chain: MLLGQKSQRYKAEEGLQAQGEAPGLMDVQIPTAEEQKAASSSSTLIMGTLEEVTDSGSPSPPQSPEGASSSLTVTDSTLWSQSDEGSSSNEEEGPSTSPDPAHLESLFREALDEKVAELVRFLLRKYQIKEPVTKAEMLESVIKNYKNHFPDIFSKASECMQVIFGIDVKEVDPAGHSYILVTCLGLSYDGLLGDDQSTPKTGLLIIVLGMILMEGSRAPEEAIWEALSVMGLYDGREHSVYWKLRKLLTQEWVQENYLEYRQAPGSDPVRYEFLWGPRALAETSYVKVLEHVVRVNARVRISYPSLHEEALGEEKGV
# partner: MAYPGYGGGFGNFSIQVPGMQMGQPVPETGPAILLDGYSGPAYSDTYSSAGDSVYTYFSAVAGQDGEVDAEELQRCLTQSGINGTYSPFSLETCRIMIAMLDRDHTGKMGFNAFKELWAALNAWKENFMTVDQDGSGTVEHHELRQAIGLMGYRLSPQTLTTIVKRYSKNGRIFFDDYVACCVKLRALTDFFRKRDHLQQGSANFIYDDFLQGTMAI
# B2: Neutrophil cytosol factor 2 (Homo sapiens), P19878 (parent)
# chain: MSLVEAISLWNEGVLAADKKDWKGALDAFSAVQDPHSRICFNIGCMYTILKNMTEAEKAFTRSINRDKHLAVAYFQRGMLYYQTEKYDLAIKDLKEALIQLRGNQLIDYKILGLQFKLFACEVLYNIAFMYAKKEEWKKAEEQLALATSMKSEPRHSKIDKAMECVWKQKLYEPVVIPVGKLFRPNERQVAQLAKKDYLGKATVVASVVDQDSFSGFAPLQPQAAEPPPRPKTPEIFRALEGEAHRVLFGFVPETKEELQVMPGNIVFVLKKGNDNWATVMFNGQKGLVPCNYLEPVELRIHPQQQPQEESSPQSDIPAPPSSKAPGRPQLSPGQKQKEEPKEVKLSVPMPYTLKVHYKYTVVMKTQPGLPYSQVRDMVSKKLELRLEHTKLSYRPRDSNELVPLSEDSMKDAWGQVKNYCLTLWCENTVGDQGFPDEPKESEKADANNQTTEPQLKKGSQVEALFSYEATQPEDLEFQEGDIILVLSKVNEEWLEGECKGKVGIFPKVFVEDCATTDLESTRREV
# B3: Notch homolog 2 N-terminal-like protein A (Homo sapiens), Q7Z3S9 (parent)
# chain: MCVTYHNGTGYCKCPEGFLGEYCQHRDPCEKNRCQNGGTCVAQAMLGKATCRCASGFTGEDCQYSTSHPCFVSRPCLNGGTCHMLSRDTYECTCQVGFTGKECQWTDACLSHPCANGSTCTTVANQFSCKCLTGFTGQKCETDVNECDIPGHCQHGGTCLNLPGSYQCQCLQGFTGQYCDSLYVPCAPSPCVNGGTCRQTGDFTFECNCLPETVRRGTELWERDREVWNGKEHDEN
# partner: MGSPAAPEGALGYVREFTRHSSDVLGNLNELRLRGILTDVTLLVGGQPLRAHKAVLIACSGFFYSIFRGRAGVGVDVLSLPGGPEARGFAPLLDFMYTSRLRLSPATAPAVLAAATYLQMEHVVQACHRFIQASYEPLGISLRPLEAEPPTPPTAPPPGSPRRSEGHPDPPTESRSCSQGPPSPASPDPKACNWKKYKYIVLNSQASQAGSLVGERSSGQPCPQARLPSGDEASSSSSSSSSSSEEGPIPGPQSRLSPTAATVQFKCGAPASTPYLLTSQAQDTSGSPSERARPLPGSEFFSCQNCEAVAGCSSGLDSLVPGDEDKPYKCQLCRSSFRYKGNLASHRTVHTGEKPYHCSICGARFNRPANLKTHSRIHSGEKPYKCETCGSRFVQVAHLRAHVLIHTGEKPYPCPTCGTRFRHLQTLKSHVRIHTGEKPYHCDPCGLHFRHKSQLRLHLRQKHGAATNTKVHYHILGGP
# B4: Acylamino-acid-releasing enzyme (Homo sapiens), P13798 (parent)
# chain: MERQVLLSEPEEAAALYRGLSRQPALSAACLGPEVTTQYGGQYRTVHTEWTQRDLERMENIRFCRQYLVFHDGDSVVFAGPAGNSVETRGELLSRESPSGTMKAVLRKAGGTGPGEEKQFLEVWEKNRKLKSFNLSALEKHGPVYEDDCFGCLSWSHSETHLLYVAEKKRPKAESFFQTKALDVSASDDEIARLKKPDQAIKGDQFVFYEDWGENMVSKSIPVLCVLDVESGNISVLEGVPENVSPGQAFWAPGDAGVVFVGWWHEPFRLGIRFCTNRRSALYYVDLIGGKCELLSDDSLAVSSPRLSPDQCRIVYLQYPSLIPHHQCSQLCLYDWYTKVTSVVVDVVPRQLGENFSGIYCSLLPLGCWSADSQRVVFDSAQRSRQDLFAVDTQVGTVTSLTAGGSGGSWKLLTIDQDLMVAQFSTPSLPPTLKVGFLPSAGKEQSVLWVSLEEAEPIPDIHWGIRVLQPPPEQENVQYAGLDFEAILLQPGSPPDKTQVPMVVMPHGGPHSSFVTAWMLFPAMLCKMGFAVLLVNYRGSTGFGQDSILSLPGNVGHQDVKDVQFAVEQVLQEEHFDASHVALMGGSHGGFISCHLIGQYPETYRACVARNPVINIASMLGSTDIPDWCVVEAGFPFSSDCLPDLSVWAEMLDKSPIRYIPQVKTPLLLMLGQEDRRVPFKQGMEYYRALKTRNVPVRLLLYPKSTHALSEVEVESDSFMNAVLWLRTHLGS
# B5: Mannose-1-phosphate guanylyltransferase regulatory subunit alpha (Homo sapiens), Q96IJ6 (parent)
# chain: MLKAVILIGGPQKGTRFRPLSFEVPKPLFPVAGVPMIQHHIEACAQVPGMQEILLIGFYQPDEPLTQFLEAAQQEFNLPVRYLQEFAPLGTGGGLYHFRDQILAGSPEAFFVLNADVCSDFPLSAMLEAHRRQRHPFLLLGTTANRTQSLNYGCIVENPQTHEVLHYVEKPSTFISDIINCGIYLFSPEALKPLRDVFQRNQQDGQLEDSPGLWPGAGTIRLEQDVFSALAGQGQIYVHLTDGIWSQIKSAGSALYASRLYLSRYQDTHPERLAKHTPGGPWIRGNVYIHPTAKVAPSAVLGPNVSIGKGVTVGEGVRLRESIVLHGATLQEHTCVLHSIVGWGSTVGRWARVEGTPSDPNPNDPRARMDSESLFKDGKLLPAITILGCRVRIPAEVLILNSIVLPHKELSRSFTNQIIL
# B6: Keratin-associated protein 3-2 (Homo sapiens), Q9BYR7 (parent)
# chain: MDCCASRSCSVPTGPATTICSSDKSCRCGVCLPSTCPHTVWLLEPICCDNCPPPCHIPQPCVPTCFLLNSCQPTPGLETLNLTTFTQPCCEPCLPRGC
# partner: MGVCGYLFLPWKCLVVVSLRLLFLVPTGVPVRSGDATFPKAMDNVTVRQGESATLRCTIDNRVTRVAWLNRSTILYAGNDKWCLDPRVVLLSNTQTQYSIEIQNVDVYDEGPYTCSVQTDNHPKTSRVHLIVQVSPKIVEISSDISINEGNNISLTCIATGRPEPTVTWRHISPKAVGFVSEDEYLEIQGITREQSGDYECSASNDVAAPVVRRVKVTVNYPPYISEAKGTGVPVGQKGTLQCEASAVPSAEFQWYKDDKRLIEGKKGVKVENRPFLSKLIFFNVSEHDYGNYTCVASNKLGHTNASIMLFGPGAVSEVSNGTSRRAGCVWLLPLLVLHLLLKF
# B7: Tripartite motif-containing protein 10 (Homo sapiens), Q9UDY6 (parent)
# chain: MASAASVTSLADEVNCPICQGTLREPVTIDCGHNFCRACLTRYCEIPGPDLEESPTCPLCKEPFRPGSFRPNWQLANVVENIERLQLVSTLGLGEEDVCQEHGEKIYFFCEDDEMQLCVVCREAGEHATHTMRFLEDAAAPYREQIHKCLKCLRKEREEIQEIQSRENKRMQVLLTQVSTKRQQVISEFAHLRKFLEEQQSILLAQLESQDGDILRQRDEFDLLVAGEICRFSALIEELEEKNERPARELLTDIRSTLIRCETRKCRKPVAVSPELGQRIRDFPQQALPLQREMKMFLEKLCFELDYEPAHISLDPQTSHPKLLLSEDHQRAQFSYKWQNSPDNPQRFDRATCVLAHTGITGGRHTWVVSIDLAHGGSCTVGVVSEDVQRKGELRLRPEEGVWAVRLAWGFVSALGSFPTRLTLKEQPRQVRVSLDYEVGWVTFTNAVTREPIYTFTASFTRKVIPFFGLWGRGSSFSLSS
# partner: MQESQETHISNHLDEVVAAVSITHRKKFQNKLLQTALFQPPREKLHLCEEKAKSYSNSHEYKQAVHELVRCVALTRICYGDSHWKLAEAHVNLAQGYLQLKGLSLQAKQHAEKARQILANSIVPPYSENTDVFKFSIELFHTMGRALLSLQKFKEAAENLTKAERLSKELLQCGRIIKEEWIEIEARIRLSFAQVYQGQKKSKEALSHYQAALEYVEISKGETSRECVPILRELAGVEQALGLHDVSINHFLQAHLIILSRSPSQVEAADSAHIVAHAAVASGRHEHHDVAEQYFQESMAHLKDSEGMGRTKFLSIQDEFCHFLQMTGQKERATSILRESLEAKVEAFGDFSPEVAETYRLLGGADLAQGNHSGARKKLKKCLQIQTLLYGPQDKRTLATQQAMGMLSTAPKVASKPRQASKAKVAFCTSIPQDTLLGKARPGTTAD
# Variants of: B1
# Conditions: with gran_human GCA
row,Variant,effect of a mutation on the interaction
1,R9C,with no effect
2,R121H,with no effect

# Variants of: B2
# Conditions: with kifa3_human KIFAP3, Q92845
# Chain of kifa3_human KIFAP3, Q92845 (Q92845 whole entry): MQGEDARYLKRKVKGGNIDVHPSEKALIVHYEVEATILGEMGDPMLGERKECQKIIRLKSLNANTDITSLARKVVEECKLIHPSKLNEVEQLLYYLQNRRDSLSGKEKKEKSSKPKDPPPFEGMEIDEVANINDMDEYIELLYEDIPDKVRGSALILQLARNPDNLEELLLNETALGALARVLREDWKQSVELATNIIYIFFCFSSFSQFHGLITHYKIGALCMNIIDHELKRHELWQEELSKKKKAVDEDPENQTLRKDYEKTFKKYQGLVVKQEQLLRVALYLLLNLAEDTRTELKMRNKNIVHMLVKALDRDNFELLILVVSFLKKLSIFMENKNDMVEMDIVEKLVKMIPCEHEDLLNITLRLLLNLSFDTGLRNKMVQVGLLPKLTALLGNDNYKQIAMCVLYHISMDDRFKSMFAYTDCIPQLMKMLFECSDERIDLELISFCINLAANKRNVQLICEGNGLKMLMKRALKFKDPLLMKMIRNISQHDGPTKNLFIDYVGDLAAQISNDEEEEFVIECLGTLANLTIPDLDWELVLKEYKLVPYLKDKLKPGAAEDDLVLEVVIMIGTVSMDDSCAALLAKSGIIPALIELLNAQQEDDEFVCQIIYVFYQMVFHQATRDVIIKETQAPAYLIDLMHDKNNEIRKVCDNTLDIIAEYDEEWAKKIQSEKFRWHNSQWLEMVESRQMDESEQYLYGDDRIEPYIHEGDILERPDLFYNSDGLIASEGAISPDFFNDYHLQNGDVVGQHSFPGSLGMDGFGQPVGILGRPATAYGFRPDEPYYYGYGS
row,Variant,effect of a mutation on the interaction
1,V297A,with no effect

# Variants of: B3
# Conditions: with bcl6b_human BCL6B
row,Variant,effect of a mutation on the interaction
1,R74Q,with no effect
2,A115T,with no effect

# Variants of: B4
# Conditions: with leg8_human LGALS8, O00214
# Chain of leg8_human LGALS8, O00214 (O00214 whole entry): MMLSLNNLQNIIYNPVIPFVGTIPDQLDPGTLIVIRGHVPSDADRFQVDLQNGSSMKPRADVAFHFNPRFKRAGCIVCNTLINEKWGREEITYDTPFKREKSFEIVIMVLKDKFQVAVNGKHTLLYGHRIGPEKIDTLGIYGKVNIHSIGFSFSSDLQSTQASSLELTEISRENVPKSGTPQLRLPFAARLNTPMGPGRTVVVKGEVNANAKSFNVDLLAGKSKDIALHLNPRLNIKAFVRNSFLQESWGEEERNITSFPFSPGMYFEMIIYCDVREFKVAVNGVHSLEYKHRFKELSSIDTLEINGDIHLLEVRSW
row,Variant,effect of a mutation on the interaction
1,F378S,disrupting interaction strength

# Variants of: B5
# Conditions: with gmppb_human GMPPB
row,Variant,effect of a mutation on the interaction
1,V156I,with no effect

# Variants of: B6
# Conditions: with ntri_human NTM
row,Variant,effect of a mutation on the interaction
1,S8G,with no effect
2,R27C,with no effect

# Variants of: B7
# Conditions: with ttc23_human TTC23, Q5W5X9
row,Variant,effect of a mutation on the interaction
1,D30N,with no effect
2,Q161E,with no effect
